The values that follow come from PMC4815329, “Biochemical and Molecular Characterization of a Flavonoid 3-O-glycosyltransferase Responsible for Anthocyanins and Flavonols Biosynthesis in Freesia hybrida” (Frontiers in Plant Science, 2016).

Substrate in data set [1]: Oc1cc(O)c2cc(O)c(-c3cc(O)c(O)c(O)c3)[o+]c2c1
Briefly: HPLC of glucoside product, initial rates, Lineweaver-Burk. It counts as biochemical, Freesia hybrid cultivar. The note with it: apparent Km, 10 mM UDP-glucose, 100 mM potassium phosphate pH 8.0, 30°C, 2 min.

Substrate in data set [2]: O=c1c(O)c(-c2ccc(O)c(O)c2)oc2cc(O)cc(O)c12
Described as above. It counts as biochemical, Freesia hybrid cultivar. The note with it: apparent Km, 10 mM UDP-glucose, 100 mM potassium phosphate pH 8.0, 30°C, 2 min.

B1: Fh3GT1 (Freesia hybrid cultivar) (protein)
chain: MGSADRSHVALLAFPFGTHAAPLLSLGLNLASSAPHGTTFSFLSNRRPVSLPPNSAIKFYEIADGSDPEHEGHVHPEEEVRVFMEETPGNYKKALEAAVDRCGGQRVTCIVADAFLWFVGDIAAEFGVHWVPLWTGGPCSFLAHLYTDMLRNKIGTGKEADPDEDLQFLPGLSGFRVRDLPDDIVTGDLTGAFASLLHRMSIEIPRSAAAIAINTFEGLHPDIDADLASKFKKSLPIGPLNLLNPTLNQPDRFSCLAWLDKFEPHSVAYVSFGTLAALTEAELVELASGLEQSGVPFLWSLKEPGQLPAGFLDRTKDRGLVVPWVPQAEALKHVAVGASLSHCGWNSVMESVTSGVPMLCRPFLGDQTMNARAVSHVWKVGVTFENGTMTRANVAEAMKKVVVGEEGRKMRERAAAIREMAAGSVRPGGSSVQNFKALLDIVIAR
notes: full-length ORF, pET-28a(+), N-terminal His tag, E. coli BL21(DE3), Ni Sepharose purified; cDNA described in Sui et al. 2011; Asn-244 (NPTL) and Asn-386 (NGTM)
As to B1, in data set [1], the Michaelis-Menten constant (Km) was found to be 58.88 ± 1.68 µM, the kcat was found to be 0.53 ± 0.01 s⁻¹ and the kcat/Km came to 9060 M⁻¹ s⁻¹. In addition, in data set [2], the Km came to 98.47 ± 4.96 µM, the kcat amounted to 4.59 ± 0.035 s⁻¹ and the kcat/Km is 48500 M⁻¹ s⁻¹.
